{"source": "IntAct's records for PubMed 20169075", "parents": {"B1": {"name": "Dimethyl sulfoxide reductase DmsA (Escherichia coli (strain K12)), P18775 (parent)", "chain": "MKTKIPDAVLAAEVSRRGLVKTTAIGGLAMASSALTLPFSRIAHAVDSAIPTKSDEKVIWSACTVNCGSRCPLRMHVVDGEIKYVETDNTGDDNYDGLHQVRACLRGRSMRRRVYNPDRLKYPMKRVGARGEGKFERISWEEAYDIIATNMQRLIKEYGNESIYLNYGTGTLGGTMTRSWPPGNTLVARLMNCCGGYLNHYGDYSSAQIAEGLNYTYGGWADGNSPSDIENSKLVVLFGNNPGETRMSGGGVTYYLEQARQKSNARMIIIDPRYTDTGAGREDEWIPIRPGTDAALVNGLAYVMITENLVDQAFLDKYCVGYDEKTLPASAPKNGHYKAYILGEGPDGVAKTPEWASQITGVPADKIIKLAREIGSTKPAFISQGWGPQRHANGEIATRAISMLAILTGNVGINGGNSGAREGSYSLPFVRMPTLENPIQTSISMFMWTDAIERGPEMTALRDGVRGKDKLDVPIKMIWNYAGNCLINQHSEINRTHEILQDDKKCELIVVIDCHMTSSAKYADILLPDCTASEQMDFALDASCGNMSYVIFNDQVIKPRFECKTIYEMTSELAKRLGVEQQFTEGRTQEEWMRHLYAQSREAIPELPTFEEFRKQGIFKKRDPQGHHVAYKAFREDPQANPLTTPSGKIEIYSQALADIAATWELPEGDVIDPLPIYTPGFESYQDPLNKQYPLQLTGFHYKSRVHSTYGNVDVLKAACRQEMWINPLDAQKRGIHNGDKVRIFNDRGEVHIEAKVTPRMMPGVVALGEGAWYDPDAKRVDKGGCINVLTTQRPSPLAKGNPSHTNLVQVEKV", "partner": "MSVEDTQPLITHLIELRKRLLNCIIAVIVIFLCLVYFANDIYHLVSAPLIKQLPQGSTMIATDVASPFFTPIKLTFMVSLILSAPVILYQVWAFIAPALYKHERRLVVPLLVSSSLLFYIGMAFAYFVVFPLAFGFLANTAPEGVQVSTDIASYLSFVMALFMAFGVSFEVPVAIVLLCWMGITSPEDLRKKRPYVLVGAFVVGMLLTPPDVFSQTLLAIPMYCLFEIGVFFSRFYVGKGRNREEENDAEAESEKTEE"}, "B2": {"name": "Dimethyl sulfoxide reductase DmsA (Escherichia coli (strain K12)), P18775 (parent)", "chain": "B1 chain", "partner": "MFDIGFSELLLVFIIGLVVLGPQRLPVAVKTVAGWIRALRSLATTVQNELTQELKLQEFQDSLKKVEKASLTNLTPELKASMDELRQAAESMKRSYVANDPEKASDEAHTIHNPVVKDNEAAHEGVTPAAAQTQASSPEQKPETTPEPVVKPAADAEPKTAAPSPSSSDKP"}, "B3": {"name": "Tat proofreading chaperone DmsD (Escherichia coli (strain K12)), P69853 (parent)", "chain": "MTHFSQQDNFSVAARVLGALFYYAPESAEAAPLVAVLTSDGWETQWPLPEASLAPLVTAFQTQCEETHAQAWQRLFVGPWALPSPPWGSVWLDRESVLFGDSTLALRQWMREKGIQFEMKQNEPEDHFGSLLLMAAWLAENGRQTECEELLAWHLFPWSTRFLDVFIEKAEHPFYRALGELARLTLAQWQSQLLIPVAVKPLFR"}, "B4": {"name": "Sec-independent protein translocase protein TatC (Escherichia coli (strain K12)), P69423 (parent)", "chain": "B1 partner"}}}
{"variants_of": "B1", "details": "with tatc_ecoli tatC, P69423"}
{"variant": "R16K;R17K", "effect of a mutation on the interaction": "increasing interaction"}
{"variants_of": "B2", "details": "with tatb_ecoli tatB"}
{"variant": "R16K;R17K", "effect of a mutation on the interaction": "increasing interaction"}
{"variants_of": "B3", "details": "with dmsa_ecoli dmsA"}
{"variant": "W72H;L75Y", "effect of a mutation on the interaction": "increasing interaction"}
{"variants_of": "B4", "details": "with dmsa_ecoli dmsA, P18775"}
{"variant": "P48A", "effect of a mutation on the interaction": "decreasing interaction"}
{"variant": "E103R", "effect of a mutation on the interaction": "decreasing interaction"}
{"variants_of": "B4", "details": "with dmsd_ecoli dmsD"}
{"variant": "P48A", "effect of a mutation on the interaction": "decreasing interaction"}
{"variant": "E103R", "effect of a mutation on the interaction": "disrupting interaction"}
